According to patent US20260201015A1 (published 2026):

Columns and labels:
[1] = biological target: T1, parathyroid hormone (PTH) peptide (UniProt P01270 32-65, TAMRA label in FP assays (PTH-TAMRA), site not stated; biotinylated in yeast display); assay: Split NanoBiT titration
T1 peptide: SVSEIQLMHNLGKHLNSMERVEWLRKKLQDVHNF

[2] = biological target: glucagon (GCG) (UniProt P01275 53-81, fluorescently labeled (FAM or TAMRA) in FP assays, site not stated; biotinylated in yeast display); assay: FP
[3] = biological target: T2, secretin (SCT) (UniProt P09683 28-54, fluorescently labeled (FAM or TAMRA) in FP assays, site not stated); assay: FP
T2 peptide: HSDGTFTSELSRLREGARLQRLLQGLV

Sequence of glucagon (GCG) (P01275 53-81): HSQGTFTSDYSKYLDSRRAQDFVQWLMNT

Binder	Kd [1]	Kd [2]	Kd [3]
parametrically designed PTH binder (SEQ ID NO: 1) (designed binder) SQELIEELIKLAKELAEIKDEEERRKIKRELERLAEELKEAPASSLLRALALLVIALALIQAAESEEERERARELLERLEELLRELEKQITDERFKEILRELEELAKELKKQL	> 1000 nM		
GCG_C09 (RF Diffusion/Partial diffusion), partially diffused GCG binder, SEQ ID NO: 8 (designed binder) SMEKLAEIMQEIIEAYQEVKDAFFKFIKAVHEGAPEEELKKYLEKMKEALEKMKELLERLEKEAKKVIEENKDKKLELKVLLMLRLAYLLLKVSIELTKIAAEKLGDKELVEELEKESKEVEKKIKELEERIKKLLEEVDDEELKEAYKEVEEMEKEAEKFLEKMRKV		< 0.5 nM	1.42 nM
